Source: patent US6492131B1, “Class I-type lysyl-TRNA synthetase” (Yale University, priority 1997, dated 2002)

Substrate: NCCCC[C@H](N)C(=O)O
Assay: Kinetic characterization of LysRS: aminoacylation of M. maripaludis total tRNA with lysine
Assay type: biochemical, Methanococcus maripaludis
Details: other: purified native LysRS 5 nM, 37° C., pH 7.2
From the text: To investigate the formation of Lys-tRNA in cell-free extracts prepared from M. maripaludis, (^14C) lysine and homologous total TRNA were used as substrates (6). […] This was confirmed by the observation that (^14C)Lys-tRNA synthesis was inhibited by only one of the 20 canonical amino acids, lysine (FIG. 1). This is consistent with the presence of LysRS, since Lys-tRNA synthesis via a mischarged tRNA would result in a non-labeled amino acid other than lysine being able to inhibit lysylation of tRNA. On the basis of these observations LysRS from M. maripaludis was purified. By standard chromatographic procedures (8), a single 62-kD protein was isolated, which was purified to homogeneity as judged by both silver staining after denaturing polyacrylamide gel electrophoresis (SDS-PAGE) and the appearance of a single symmetrical peak during size exclusion chromatography. […] The enzyme could acylate unfractionated tRNA with lysine to the same degree as the M. maripaludis crude extract (FIG. 1), confirming that the purified protein is LysRS. […] These modified nucleotides have previously been detected at position 34 in all known tRNA^Glu and tRNA^Lys isoacceptors (13).
6. […]
9. […] Sampling and quantification were as described (K. -W. Hong et al., EMBO J. 15, 1983 (1996)).

B1: M. maripaludis LysRS (Methanococcus maripaludis) (protein)
chain: MHWADATSEKIMKKRNAEEYVVSSGITPSGHIHIGNARETLTADAVYKGMLKKGAEAKLIFIADDYDPLRKLYPFLPKEFEKYIGMPLSEIPCPQGCCKSYADHFLMPFLNSLEDLGVEITTHRANECYKAGMYNEAIITALENRLKIKELLDSYRKEPLADNWYPLNVVCEKCGKMHETKVTSYNSEDKTITYVCKCGFENTVQPFNGIGKLPWRVDWPARWNIFGVTAEPMGKDHAASGGSYDTGIKIARQIFNYQAPEKMVYEWIQLKIGDKAMPMSSSSGVVFAVKDWTEICHPEVLRFLILKGKPTKHIDFDLKAISNLVDDYDELERKYFELIEKQKTEELNDNENEKISLYELVTPKIPERLPLQVAYRFCSIIAQIALDKETQKIDMERVFDILGRNGYNPAEFSEYDKSRLEKRLYMSKKWASDYGENLEINDFEQAKEQYETLSEEQKAWLKAFSKEVENIEIDANTIHELMYETATKLNLAPKEAFVASYKILLGKNYGPKLGSFLASLKKEFVIGRFNLTE
With B1 as the protein, how does the Km read?
Its Km is 2.2 µM.

What about the kcat of the same protein?
The kcat was 1.6 s⁻¹.
